Consider 20 sequences from the DeepSol protein solubility set.

A short description of the data set: soluble on expression in E. coli; label from the status in PepcDB or PDB records.
In the case of “MLASARRALHPGHPPAIHRAMNSEIDPGRCPLCQQSNRCTLAYPTSATQACWCFTTEIDAAVLERIPAELRRRACLCPRCAQLLPPDADD”, the “soluble on expression in E. coli” value is “not soluble”. As for “MLATPFWYNAALKVLKPVYRWRIKKRAENEMRYQQECRERFGPFQQPQNRHALWFHAVSVGETNAAQPLIEYYLKLGHPVLVTNTTKTGQARAKSLFLKSPYLELFQAVYLPVDQIFLLKQFFELYQPKLLALVETELWPNLIDQAQHYGVPTFLINARLSEKSAQGYARVSALSNAMLSRLTGLLAQDQSTQQRFIGLGLAREKAQVVGNIKFDIDVPLLFVLEHHHHHH”, the entry is “not soluble”; as for “MLCQKCQKRVANVQMTQIINNNKTVIYLCEQCAREEGKFNVISPFSINDFFSGFMGFPYMASAPQQNQDVVCETCGMSYEEFKKVGKLGCSNCYKTYGDRLVPLLRRLHGNIQYNGKFPSRAFGSIKISREIEKLKEQLNIAIKNEEYEKAAILRDQIRNLESNQNNM”, “not soluble”; as for “MLCVRRRCISAPMTDTTILPRPEVSGDFLVAALYHFARLPRFESLREQLFELCQKNGVKGTLLLAAEGINGTIAGPDAGVQAVLSFLRAQPEFAALEHKESRASHMPFVRLKVKLKKEIVTMGVPDIDPNRIVGTYVDPRDWNALISDPDTIVIDTRNDYETAIGVFKGAVDPQTKTFREFPDWVKNNPGLHNKPKIAMYCTGGIRCEKATAFMKEQGFDEVYHLKGGILKYLEEVPEEESLWEGACFVFDERVSVVHGLAEGDHQLCHACRNPITPDVRLSPKFEEGVSCPSCYDERSEDDRQRFRDRQQQIELAKTRGERHLGRLEHHHHHH”, “soluble”. As for “MLDDLPGVADNAKKILFDMKCTTVIDDCNVHLRDVLNLLEDEMHSFRLSSIEANDLDKLYDTFYYYGKKEQLIEFLLDQMTNAINFKQADKDFLIYSWLVEKLTEEQICEMLARINENTQYHWNNNLNSFVDEFVAYYKETNGIDLRINYLGAIYTNLKILSDEYTLSISDYELIFKFFEDIIESHSETIFDFQRKYKKDIETNFGNSLENFPKLNKLLFE”, the entry is “not soluble”; as for “MLDFAQLPPEVNSALMYAGPGSGPMLAAAAAWEALAAELQTTASTYDALITGLADGPWQGSSAASMVAAATPQVAWLRSTAGQAEQAGSQAVAAASAYEAAFFATVPPPEIAANRALLMALLATNFLGQNTAAIAATEAQYAEMWAQDAAAMYGYAGASAAATQLSPFNPAAQTINPAGLASQAASVGQAVSGAANAQALTDIPKALFGLSGIFTNEPPWLTDLGKALGLTGHTWSSDGSGLIVGGVLGDFVQGVTGSAELDASVAMDTFGKWVSPARLMVTQFKDYFGLAHDLPKWASEGAKAAGEAAKALPAAVPAIPSAGLSGVAGAVGQAASVGGLKVPAVWTATTPAASPAVLAASNGLGAAAAAEGSTHAFGGMPLMGSGAGRAFNNFAAPRYGFKPTVIAQPPAGG”, “not soluble”.

As for “MLDGLFNWAIARNIMNYNPLPTDKPNRPQGFIPYIYKREELKKIIDKSMTYRSFYTTFYPETIRGIIMLTYLWGLRPSETLGIEMADVHLGTDNYIVIKQMKFYNTRIVTFNDRSLLL”, the “soluble on expression in E. coli” value is listed as “not soluble”. In the case of “MLDKVIYSLLRTQDPGLAQELYFRLQAKEQSFAEVAQKYSQGPESQTGGLVGPVEQSSLHPAMVQLLSSCQPGQISPPTRITELEHHHHHH”, the “soluble on expression in E. coli” value is “not soluble”.

With “MLDVEVEEKAGPKGKHNKDRTVYSYGTEKTSVVLDGRKVKIERPRLCVYKIRKLTLKDSNSFSRRTR”, the “soluble on expression in E. coli” value is listed as “not soluble”.

Regarding “MLEIEIVYGLPDRQVLKTMQLAEGTTVRAAALQSGLDGIFEDLNLHSAPLGIFGKAVKDDTPLRDGDRIEVYRPLLIDPKEARRKRVQNQEE”, the “soluble on expression in E. coli” value was “not soluble”. As for “MLEKSFLKSKQLFLCGLGVLMLQACTCPNTSQRNSFLQDVPYWMLQNRSEYITQGVDSSHIVDGKKTEEIEKIATKRATIRVAQNIVHKLKEAYLSKTNRIKQKITNEMFIQMTQPIYDSLMNVDRLGIYINPNNEEVFALVRARGFDKDALSEGLHKMSLDNQAVSILVAKVEEIFKDSVNYGDVKVPIAM”, the entry is “not soluble”; as for “MLEKVYVALIHYPIKGKDGSIISTAVTNLDVHDIARTARTYNLKGYYIVTNLRAQQDMVSKMLKFWREGFGSRYNPSRAESLKLVKLKSYLEDVLEDIESVEGERPLIFFTSAKKRENDISFEEGRRIIIETEKPVLILLGTGWGLPDEILEISDYVLEPIRAQSDFNHLSVRAAAAIIIDRLIGENYARRD”, “soluble”; as for “MLESVVAYGIIAGARAITGLRSLWLGTTPIPKQRIYYANHSSHGDFVLLWASLPPEVRRRTRPVAGADYWNKAGLRSYVINKVFNGVLVDRQRSEANANPLEPLDRALDGGDSLIIFPEGTRNLDDEVKLLPFKSGIYHLSLAHPDVELVPVWLANLNRVMPKGRMLPLPLLCTLSFGKPLVATAEEGKEAFLERARMALLDLAPEEEA”, “not soluble”. The same measure for “MLFSLKYLGMTLVEQPKGEELSAAAIKRIVATAKASGKKLQKVTLKVSPRGIILTDNLTNQLIENVSIYRISYCTADKMHDKVFAYIAQSQHNQSLECHAFLCTKRKMAQAVTLTVAQAFKVAFEFWQVSKEEKEKRDKASQEGGDVLGARQDCTPPLKSLVATGNLLDLEETAKAPLSTVSANTTNMDEVPRPQALSGSSVVWELDDGLDEAFSRLAQSRTNPQVLDTGLTAQDMHYAQCLSPVDWDKPDSSGTEQDDLFSF”: “soluble”; for “MLGRRAVSVHRFLSRAARQSVTAASSAQPSLQAKTSLLEPLVQNVRITSSANFHMSAVRMSDVITVEGPAFAESISEGDIRWLKQKGDHVNEDELVAEIETDKTSVEVPAPQAGTIVEFLVEDGAKVTAKQKLYKLQPGAGGGSSSAPAKEEPKSAPAKEESKPAPAKEDSKPAVTAAAPPKPVSGDIPKSAPPVARPPSTPSSSTPVGAVPVTRVVVPKGVDPSHAITGARDEVRVKANRMRMRIAQRLKDAQNTYAMLTTFNEIDMSSLIEMRKTYQKDFVAKHGVKLGMMSPFVRAAAYALQESPVVNAVLDENEIVYRHFVDISVAVATPKGLVVPVLRNVESMNYAQIELELANLGVKARDGKLAVEDMEGGTFTISNGGVFGSMFGTPIINPPQSAILGMHGVFDRVVPVNGKPEIRPIMQIALTYDHRLIDGREAVTFLKKIKTAVEDPRIMFMNL”: “not soluble”. As to “MLIACRLCAKAVQQGLKTVVYVPDERLAGQFDKLLWTFTPTGFVPHCRVDNKLADVTPVIMNSRPVLMEAGCFGVLLNLDADVPPGFEQFPRVVEIVDEAEDGKLQARKRYRHYQEQGHDVRHHRLDGN”, the “soluble on expression in E. coli” value is on record as “not soluble”.

For “MLIKQTDYFRIYRVINSLLISQNADPASASMYFSTFGAFILQQHYKVKAVPKGGLAAYNLGGTVLLFADHREDGYVTGAGENFHCWVEADGWAIDFMAPAFSEGTDALAVPAKMFQRPLSAMAASINDLGQSGDFFYRSEPEATARRFADWHKQAMIGDMASVAANWFRKSPKQMAASLSVTDRDGKARTVPLTGEMLTGAW”, the “soluble on expression in E. coli” value is recorded as “soluble”. As for “MLIRTEAPADILTIDRLLKHAFPTDAEANLVMRLRENGKLTLSLVACTDEGEVIGHALFSPVTLNGEDLSWQGLAPLAVHEDYRRQGIGAELIKEGFESLRDFGYPVCVVLGEPNYYARQGFNAGEEMGFECAWEVPEGAFRVAELVEGQCTGRSGRIDYAPEFSEL”, the entry is “not soluble”. As for “MLIRVEIPIDAPGIDALLRRSFESDAEAKLVHDLREDGFLTLGLVATDDEGQVVGYVAFSPVDVQGEDLQWVGMAPLAVDEKYRGQGLARQLVYEGLDSLNEFGYAAVVTLGDPALYSRFGFELAAHYDLHCRWPGTESAFQVHRLAEDALEGVTGLVEYHDHFNRF”, the entry is “not soluble”; as for “MLITDTLSPQAFEEALRAKGDFYHIHHPYHIAMHNGNATREQIQGWVANRFYYQTTIPLKDAAIMANCPDAQTRRKWVQRILDHDGSHGEDGGIEAWLRLGEAVGLSRDDLLSERHVLPGVRFAVDAYLNFARRACWQEAACSSLTELFAPQISQSRLDSWPQHYPWIKEEGYFYFRSRLSQANRDVEHGLALAKAYCDSAEKQNRMLEILQFKLDILWSMLDAMTMAYALQRPPYHTVTDKAAWHTTRLVLEHHHHH”, “soluble”.
